Source: ChEMBL document CHEMBL2074118, “Effects of tacrolimus and cyclosporin A on peptide transporter PEPT1 in Caco-2 cells” (Pharm Res, 2001)

Substrate: CN(CC(=O)O)C(=O)CN
Assay: TP_TRANSPORTER: uptake in Caco-2 cells
Type: functional, cell-based

B1: Solute carrier family 15 member 1 (Homo sapiens), P46059 (protein)
chain: MGMSKSHSFFGYPLSIFFIVVNEFCERFSYYGMRAILILYFTNFISWDDNLSTAIYHTFVALCYLTPILGALIADSWLGKFKTIVSLSIVYTIGQAVTSVSSINDLTDHNHDGTPDSLPVHVVLSLIGLALIALGTGGIKPCVSAFGGDQFEEGQEKQRNRFFSIFYLAINAGSLLSTIITPMLRVQQCGIHSKQACYPLAFGVPAALMAVALIVFVLGSGMYKKFKPQGNIMGKVAKCIGFAIKNRFRHRSKAFPKREHWLDWAKEKYDERLISQIKMVTRVMFLYIPLPMFWALFDQQGSRWTLQATTMSGKIGALEIQPDQMQTVNAILIVIMVPIFDAVLYPLIAKCGFNFTSLKKMAVGMVLASMAFVVAAIVQVEIDKTLPVFPKGNEVQIKVLNIGNNTMNISLPGEMVTLGPMSQTNAFMTFDVNKLTRINISSPGSPVTAVTDDFKQGQRHTLLVWAPNHYQVVKDGLNQKPEKGENGIRFVNTFNELITITMSGKVYANISSYNASTYQFFPSGIKGFTISSTEIPPQCQPNFNTFYLEFGSAYTYIVQRKNDSCPEVKVFEDISANTVNMALQIPQYFLLTCGEVVFSVTGLEFSYSQAPSNMKSVLQAGWLLTVAVGNIIVLIVAGAGQFSKQWAEYILFAALLLVVCVIFAIMARFYTYINPAEIEAQFDEDEKKNRLEKSNPYFMSGANSQKQM
Km: 830 µM
